Measurements from publication PMC4148589.

Molecular target: CaV1.1 chimera containing the I–II loop of the CaV2.1 α1A subunit (pc-α1SI–IIA)
Test: FRAP

Chain of skeletal muscle β1a subunit, GFP-tagged (pcDNA3-β1a-GFP) (P19517 whole entry): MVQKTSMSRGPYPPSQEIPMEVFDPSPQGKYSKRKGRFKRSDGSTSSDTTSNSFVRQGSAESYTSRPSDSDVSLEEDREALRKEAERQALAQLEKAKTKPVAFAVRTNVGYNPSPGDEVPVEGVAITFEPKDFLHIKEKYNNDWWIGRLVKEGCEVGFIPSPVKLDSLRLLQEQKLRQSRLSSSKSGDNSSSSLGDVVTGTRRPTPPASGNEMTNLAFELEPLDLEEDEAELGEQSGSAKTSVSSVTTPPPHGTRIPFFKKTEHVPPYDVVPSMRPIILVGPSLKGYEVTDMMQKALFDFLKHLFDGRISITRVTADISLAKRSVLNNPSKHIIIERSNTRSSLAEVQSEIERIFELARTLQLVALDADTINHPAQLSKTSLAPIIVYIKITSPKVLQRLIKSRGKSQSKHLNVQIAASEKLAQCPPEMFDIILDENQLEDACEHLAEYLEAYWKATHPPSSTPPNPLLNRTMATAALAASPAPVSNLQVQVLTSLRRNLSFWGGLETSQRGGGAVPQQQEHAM

Q: How did the R75 (fractional fluorescence recovery 75 s after bleaching) turn out when “skeletal muscle β1a subunit, GFP-tagged (pcDNA3-β1a-GFP) (from UniProt P19517 1-524) (natural protein)” was run?
A: 20.5%
